Data taken from patent US20120264685A1 (priority 2009, published 2012).
Where no end group is shown, it is not given here. [ ]: non-standard residue; d: D form. Bip(2'-Et-4'-OMe) = CCc1cc(OC)ccc1-c1ccc(C[C@H](N)C(=O)O)cc1; αMePhe(2,6-F2) = C[C@](N)(Cc1c(F)cccc1F)C(=O)O; αMePhe(2-F) = C[C@](N)(Cc1ccccc1F)C(=O)O; αMeBip(OMe) = alpha-methylated Bip(OMe); hhPhe = N[C@@H](CCCc1ccccc1)C(=O)O; αMeD = C[C@](N)(CC(=O)O)C(=O)O; αMeP = C[C@@]1(C(=O)O)CCCN1; αMeAPPA = not defined here; αMeS = C[C@](N)(CO)C(=O)O; Ac3c = NC1(C(=O)O)CC1; Aib = CC(C)(N)C(=O)O

B1: Seq. ID. No. 14 (peptide)
peptide: VH[αMeP]EGTFTSD[αMeBip(OMe)][hhPhe]
modifications: not fully specified (C-terminus); printed as VH-(αMe-Pro)-EGTFTSD-(αMe-Bip(OMe))-(APPA)
B2: Seq. ID. No. 16 (peptide)
peptide: VH[Ac3c]EGTFTSD[αMeBip(OMe)][hhPhe]
modifications: not fully specified (C-terminus)
B3: Seq. ID. No. 18 (peptide)
peptide: VHAQGT[αMePhe(2-F)]TSD[αMeBip(OMe)][hhPhe]
modifications: not fully specified (C-terminus); printed as VHAQGT-(αMe-2FPhe)-TSD-(αMe-Bip(OMe))-(APPA)
B4: Seq. ID. No. 26 (peptide)
peptide: VHAQGT[αMePhe(2,6-F2)]TSD[αMeBip(OMe)][hhPhe]-NH2
B5: Seq. ID. No. 34 (peptide)
peptide: VHAQGTFT[αMeS]D[αMeBip(OMe)][hhPhe]-NH2
B6: Seq. ID. No. 49 (peptide)
peptide: VHSQGT[αMePhe(2,6-F2)]T[αMeS]D[αMeBip(OMe)][hhPhe]-NH2
B7: Seq. ID. No. 59 (peptide)
peptide: VH[Aib]QGTFTS[αMeD][αMeBip(OMe)][hhPhe]-NH2
B8: Seq. ID. No. 64 (peptide)
peptide: VH[αMeP]EGTFTS[αMeD][αMeBip(OMe)][hhPhe]-NH2
B9: Seq. ID. No. 68 (peptide)
peptide: VH[αMeP]QGT[αMePhe(2-F)]TS[αMeD][αMeBip(OMe)][hhPhe]-NH2
B10: Seq. ID. No. 76 (peptide)
peptide: VH[αMeP]QGT[αMePhe(2,6-F2)]TS[αMeD][αMeBip(OMe)][hhPhe]
modifications: not fully specified (C-terminus)
B11: Seq. ID. No. 79 (peptide)
peptide: VH[Aib]EGT[αMePhe(2,6-F2)]TS[αMeD][αMeBip(OMe)][hhPhe]
modifications: not fully specified (C-terminus)
B12: Seq. ID. No. 84 (peptide)
peptide: VH[αMeP]QGTFTSD[Bip(2'-Et-4'-OMe)][αMeAPPA]
modifications: not fully specified (C-terminus); printed as VH-(αMe-Pro)-QGTFTSD-Bip(OMe)-(αMe-APPA); reading uncertain
B13: Seq. ID. No. 88 (peptide)
peptide: VHAEGTFTSD[Bip(2'-Et-4'-OMe)][αMeAPPA]
modifications: not fully specified (C-terminus); printed as VHAEGTFTSD-Bip(OMe)-(αMe-APPA); reading uncertain
B14: Seq. ID. No. 13 (peptide)
peptide: VH[Aib]EGTFTSD[αMeBip(OMe)][hhPhe]
modifications: not fully specified (C-terminus); printed as VH-Aib-EGTFTSD-(αMe-Bip(OMe))-(APPA)
B15: Seq. ID. No. 17 (peptide)
peptide: VHSQGT[αMePhe(2-F)]TSD[αMeBip(OMe)][hhPhe]
modifications: not fully specified (C-terminus); printed as VHSQGT-(αMe-2FPhe)-TSD-(αMe-Bip(OMe))-(APPA)
B16: Seq. ID. No. 19 (peptide)
peptide: VH[Aib]QGT[αMePhe(2-F)]TSD[αMeBip(OMe)][hhPhe]
modifications: not fully specified (C-terminus); printed as VH-Aib-QGT-(αMe-2FPhe)-TSD-(αMe-Bip(OMe))-(APPA)
B17: Seq. ID. No. 23 (peptide)
peptide: VH[Aib]EGT[αMePhe(2-F)]TSD[αMeBip(OMe)][hhPhe]-NH2
B18: Seq. ID. No. 30 (peptide)
peptide: VHAEGT[αMePhe(2,6-F2)]TSD[αMeBip(OMe)][hhPhe]-NH2
B19: Seq. ID. No. 39 (peptide)
peptide: VH[Aib]EGTFT[αMeS]D[αMeBip(OMe)][hhPhe]-NH2
B20: Seq. ID. No. 44 (peptide)
peptide: VH[αMeP]QGT[αMePhe(2-F)]T[αMeS]D[αMeBip(OMe)][hhPhe]-NH2
B21: Seq. ID. No. 47 (peptide)
peptide: VH[Aib]EGT[αMePhe(2-F)]T[αMeS]D[αMeBip(OMe)][hhPhe]-NH2
B22: Seq. ID. No. 63 (peptide)
peptide: VH[Aib]EGTFTS[αMeD][αMeBip(OMe)][hhPhe]-NH2

The binders below were run against human GLP-1 receptor (human, UniProt P43220 24-463) (assay: cell-based or functional assay).

| Binder | cAMP release, % activity with respect to control, at 1 nM | cAMP release, % activity with respect to control, at 10 nM | cAMP release, % activity with respect to control, at 100 nM | cAMP release, % activity with respect to control, at 1 µM | cAMP release, % activity with respect to control, at 10 µM |
| --- | --- | --- | --- | --- | --- |
| B1 | 55 % of control | 89 % of control | 93 % of control | 99 % of control | 99 % of control |
| B2 | 99 % of control | 99 % of control | 99 % of control | 99 % of control | 99 % of control |
| B3 | 99 % of control | 99 % of control | 99 % of control | 99 % of control | 99 % of control |
| B4 | 99 % of control | 99 % of control | 99 % of control | 99 % of control | 99 % of control |
| B5 | 99 % of control | 99 % of control | 99 % of control | 99 % of control | 99 % of control |
| B6 | 38 % of control | 78 % of control | 86 % of control | 95 % of control | 98 % of control |
| B7 | 39 % of control | 80 % of control | 88 % of control | 96 % of control | 99 % of control |
| B8 | 45 % of control | 84 % of control | 90 % of control | 99 % of control | 99 % of control |
| B9 | 40 % of control | 81 % of control | 87 % of control | 95 % of control | 98 % of control |
| B10 | 66 % of control | 97 % of control | 99 % of control | 99 % of control | 99 % of control |
| B11 | 69 % of control | 98 % of control | 99 % of control | 99 % of control | 99 % of control |
| B12 | 40 % of control | 81 % of control | 87 % of control | 95 % of control | 98 % of control |
| B13 | 38 % of control | 77 % of control | 85 % of control | 94 % of control | 97 % of control |

What follows are binders tested against human glucagon receptor (human, UniProt P47871 26-477) (assay: cell-based or functional assay).
human glucagon receptor, sequence (P47871 26-477): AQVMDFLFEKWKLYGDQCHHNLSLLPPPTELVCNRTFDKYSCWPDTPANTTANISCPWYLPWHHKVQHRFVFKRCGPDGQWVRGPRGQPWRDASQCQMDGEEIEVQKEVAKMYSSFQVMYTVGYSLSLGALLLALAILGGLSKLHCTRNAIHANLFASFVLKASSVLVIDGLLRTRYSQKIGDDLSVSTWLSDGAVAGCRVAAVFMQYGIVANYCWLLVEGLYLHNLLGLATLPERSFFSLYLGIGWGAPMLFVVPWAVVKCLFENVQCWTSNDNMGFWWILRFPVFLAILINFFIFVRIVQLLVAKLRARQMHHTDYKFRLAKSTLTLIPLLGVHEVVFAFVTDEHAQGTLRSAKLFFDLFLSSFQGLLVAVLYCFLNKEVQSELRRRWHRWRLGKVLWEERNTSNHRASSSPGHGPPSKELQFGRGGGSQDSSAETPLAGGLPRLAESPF

| Binder | cAMP production (pmol/ml/µg prt) with saturated glucagon peptide, at 1 nM [pmol/ml/µg prt] | cAMP production (pmol/ml/µg prt) with saturated glucagon peptide, at 10 nM [pmol/ml/µg prt] | cAMP production (pmol/ml/µg prt) with saturated glucagon peptide, at 100 nM [pmol/ml/µg prt] | cAMP production (pmol/ml/µg prt) with saturated glucagon peptide, at 1 µM [pmol/ml/µg prt] | cAMP production (pmol/ml/µg prt) with saturated glucagon peptide, at 10 µM [pmol/ml/µg prt] |
| --- | --- | --- | --- | --- | --- |
| B14 | 20 | 18 | 16 | 14 | 12 |
| B15 | 6 | 5 | 2 | 0 | 0 |
| B16 | 15 | 12 | 8 | 4 | 2 |
| B17 | 10 | 8 | 6 | 2 | 0 |
| B18 | 5 | 3 | 0 | 0 | 0 |
| B19 | 17 | 15 | 12 | 8 | 6 |
| B20 | 5 | 3 | 0 | 0 | 0 |
| B21 | 9 | 6 | 5 | 3 | 0 |
| B22 | 20 | 18 | 16 | 14 | 12 |
